Reference: US6403765B1, “Truncated Apaf-1 and methods of use thereof” (Thomas Jefferson University, priority 1998, dated 2002)

T1: T7-tagged Apaf-530 (Homo sapiens, UniProt O14727)
T1 construct: expressed in transfected cells; host or cells: 293 cells
T1 sequence (O14727 1-530 isoform O14727-3): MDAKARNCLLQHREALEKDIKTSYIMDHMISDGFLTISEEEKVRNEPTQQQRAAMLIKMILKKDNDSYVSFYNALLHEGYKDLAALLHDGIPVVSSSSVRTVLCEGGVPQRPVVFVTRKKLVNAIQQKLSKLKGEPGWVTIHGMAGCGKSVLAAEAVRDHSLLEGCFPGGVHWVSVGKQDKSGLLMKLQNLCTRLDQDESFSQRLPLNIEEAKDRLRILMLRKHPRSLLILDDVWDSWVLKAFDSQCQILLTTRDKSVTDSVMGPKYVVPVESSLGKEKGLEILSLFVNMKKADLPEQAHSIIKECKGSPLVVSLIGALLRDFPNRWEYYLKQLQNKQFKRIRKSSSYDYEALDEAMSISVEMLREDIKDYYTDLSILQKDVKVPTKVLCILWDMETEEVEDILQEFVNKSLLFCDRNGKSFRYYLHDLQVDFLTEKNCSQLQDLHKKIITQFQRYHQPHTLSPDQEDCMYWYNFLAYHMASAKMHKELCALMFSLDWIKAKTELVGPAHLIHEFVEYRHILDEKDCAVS

T2: procaspase-9 (Homo sapiens, UniProt P55211)
T2 construct: schematic representation of full length procaspase-9; made in house; host or cells: coupled in vitro transcription/translation in rabbit reticulocyte lysate (TNT Kit, Promega)
T2 sequence (P55211 1-416): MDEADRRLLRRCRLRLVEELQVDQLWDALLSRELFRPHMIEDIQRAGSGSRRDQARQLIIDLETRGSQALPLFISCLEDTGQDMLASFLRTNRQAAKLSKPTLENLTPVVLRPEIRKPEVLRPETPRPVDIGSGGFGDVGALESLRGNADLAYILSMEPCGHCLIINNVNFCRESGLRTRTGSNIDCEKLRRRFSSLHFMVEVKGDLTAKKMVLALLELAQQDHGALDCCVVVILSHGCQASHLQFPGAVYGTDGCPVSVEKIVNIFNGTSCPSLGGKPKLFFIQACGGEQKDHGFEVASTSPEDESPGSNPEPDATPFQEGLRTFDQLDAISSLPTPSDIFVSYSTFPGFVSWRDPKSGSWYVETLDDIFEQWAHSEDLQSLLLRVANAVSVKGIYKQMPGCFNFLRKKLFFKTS


What was measured:
MCF-7 cells = assay: Inhibition of apoptosis in transfected MCF-7 cells; format: cell-based; conditions: apoptosis induced by UV, Fas agonist antibody, TRAIL, or overexpression of DR4 and DR5, FIG. 17
Source text: To express the caspases or truncated Apaf-1 in mammalian cells and assay their apoptotic activity, they were amplified with the T7-tag primer and reverse primers using the pET28a constructs as templates, and subcloned into the mammalian double expression vector pRSC-LacZ (MacFarlane et al., J. Biol. Chem., 272:25417-25420, 1997; Tsang et al., Bio/Technology, 22:68, 1997) or as previously described (Li et al., Cell 91:479-489, 1997; Srinivasula et al., J. Biol. Chem., 272:18452-18545, 1997). This vector allows the expression of lacZ under the Rous Sarcoma virus promoter, and the test cDNA under the CMV promoter. To assay for apoptosis, MCF-7 or 293 cells were transfected, using the method commercially available as the Lipofect Amine method (Life Technologies, Inc.), with the pRSC-LacZ constructs in the presence or absence of different apoptosis-inhibitors. 30 h after transfection cells were stained with β-galactosidase and examined for morphological signs of apoptosis. The percentage of round blue apoptotic cells (mean±SD) were determined by phase contrast microscopy and then represented as a function of total blue cells under each condition (n≧3).

T7-tagged Apaf-530 = target: T1, T7-tagged Apaf-530; assay: Co-immunoprecipitation of Flag-tagged Apaf-1 variants with T7-tagged Apaf-530 in 293 cells; format: binding; conditions: anti-Flag immunoprecipitation, anti-T7 blot, 36 hours, FIG. 11
Description: The ability of APAF-530 to oligomerize pro-caspase-9 was tested. Co-transfection experiments in 293 cells were performed with T7-tagged Apaf-530 and different Flag-tagged Apaf-1 variants, and cell lysates were prepared and immunoprecipitated with an anti-Flag antibody. The immunoprecipitates were analyzed by Western blotting with an anti-T7 antibody.
In FIG. 11, 293 cells were co-transfected with constructs encoding T7-tagged Apaf-530 and an empty vector (lane 1) or constructs encoding Flag-tagged Apaf-1 (lane 2), Flag-tagged Apaf-530 (lane 3), Flag-tagged Apaf-530ΔCARD (lane 4) or Flag-tagged Apaf-97 (lane 5). After 36 hours, extracts were prepared and immunoprecipitated with a monoclonal antibody to the Flag epitope. The immunoprecipitates (upper panel) were analyzed by SDS-PAGE and immunoblotted with a horseradish peroxides-conjugated T7 antibody. The corresponding cellular extracts were also analyzed by SDS-PAGE and immunoblotted with a horseradish peroxides-conjugated T7 antibody (middle panel) or an anti-Flag antibody (lower panel).

procaspase-9 = target: T2, procaspase-9; assay: In vitro caspase 9 activation assay: recombinant Apaf-1 variants incubated with in vitro translated procaspase-9; format: biochemical; conditions: bacterial lysates with truncated Apaf-1 variants, FIG. 2B
Description: SDS sample buffer was then added to each sample, boiled and subjected to SDS-PAGE analysis followed by autoradiography. In FIG. 2A procaspase-9 was in vitro translated in the presence of ^35S-methionine. Following translation procaspase-9 was desalted by gel filtration through a biospin column (BioRad) to remove unincorporated methionine and free nucleotides. Desalted procaspase-9 was then incubated with 200 ng Ni^2+-affinity purified bacterially expressed recombinant Apaf-530 (WT or K149R mutant) in the presence or absence of cytochrome c or dATP or both for 2 h at 30° C. A mock sample containing Ni^2+-affinity purified material from bacteria transformed with an empty vector was used as a negative control. Following incubation the products were analyzed by SDS-PAGE and autoradiography. In FIG. 2B^35S-labeled procaspase-9 (as described above) was incubated with bacterial lysates containing truncated Apaf-1 variants as indicated and then analyzed as above (2B upper panel). The bacterial lysates were analyzed by SDS-PAGE and immunoblotted with an Apaf-1 antibody which recognizes the N-terminus of Apaf-1 (lanes 2-6) and an anti T7-tag antibody (lanes 7-8) to confirm expression and equivalent concentration of the different Apaf-1 variants (2B lowerpanel). The molecular mass markers are indicated to the right of the lower panel.
^35S-labeled caspases were obtained by in vitro translation in the presence of ^35S-methionine using a coupled transcription/translation system in rabbit reticulocyte lysate using TNT Kit (Promega) according to the manufacturer's recommendations.
To determine the role of the WD-40 repeat in the mechanism of Apaf-1-induced processing of procaspase-9, truncated Apaf-1 (Apaf-530) lacking its WD-40 repeats (FIG. 1) was expressed and purified. To reconstitute a recombinant caspase-9 activation system, the truncated Apaf-530 was incubated with in vitro translated recombinant procaspase-9 in the presence or absence of cytochrome c and dATP. […] It was previously shown that mutation of CED-4 K165R which is required for nucleotide binding destroys its activity (Chinnaiyan et al., Nature 388:728-729, 1997; Jarnes et al., Curr. Biol. 7:246-252, 1997; Seshagiri and Miller, Curr. Biol. 7:455-460, 1997). […] Therefore, either binding of Apaf-1 to cytochrome c and dATP or deletion of the repeats could induce a conformational change enabling Apaf-1 to bind and process procaspase-9.
In FIG. 3, ^35S-labeled WT or mutant D330A, D315A or C287A mutants of procaspase-9 or prodomainless procaspase-9 (Δpro, residues 134-416) were incubated with buffer (lanes 1, 4, 7, 10, 13), purified Apaf-530 (lanes 2, 5, 8, 11, 14) or mock purified material (lanes, 3, 6, 9, 12, 15) and then analyzed by SDS-PAGE and autoradiography.

T7-tagged Bcl-xL = target: T3, T7-tagged Bcl-xL (Homo sapiens, UniProt Q07817); assay: Co-immunoprecipitation of Flag-tagged Apaf-1 variants or procaspase-9 with T7-tagged Bcl-xL in 293 cells; format: binding; conditions: anti-Flag immunoprecipitation, anti-T7 blot, 36 hours, FIG. 16
T3 construct: expressed in transfected cells; host or cells: 293 cells
T3 sequence (Q07817 whole entry): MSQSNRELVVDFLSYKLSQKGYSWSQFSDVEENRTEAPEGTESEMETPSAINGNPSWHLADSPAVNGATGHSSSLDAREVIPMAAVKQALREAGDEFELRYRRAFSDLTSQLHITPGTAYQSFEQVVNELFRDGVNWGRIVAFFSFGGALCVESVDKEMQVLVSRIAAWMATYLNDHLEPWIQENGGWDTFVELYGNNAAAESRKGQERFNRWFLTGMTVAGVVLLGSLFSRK
Description: In vivo interaction experiments between Apaf-1 variants and Bcl-xL were performed. To analyze the ability of Apaf-1 to interact with Bcl-xL, 293 cells were co-transfected with constructs encoding T7-tagged Bcl-xL and constructs encoding Flag-tagged Apaf-97 (FIG. 16, lane 1), Apaf-1 (FIG. 16, lane 2), Apaf-530 (FIG. 16, lane 3) Apaf-530ΔCARD (FIG. 16, lane 4), or procaspase-9 C287A (FIG. 16, lane 5). After 36 hours, extracts were prepared and immunoprecipitated with a monoclonal antibody to the Flag epitope. The immunoprecipitates (FIG. 16, upper panel) were analyzed by SDS-PAGE and immunoblotted with a horseradish peroxidase-conjugated T7 antibody. The corresponding cellular extracts were also analyzed by SDS-PAGE and immunoblotted with a horseradish peroxides-conjugated T7 antibody (FIG. 16, middle panel) or an anti-Flag antibody (FIG. 16, lower panel).

Molecule | inhibition of apoptosis (MCF-7 cells) | co-immunoprecipitation with T7-Apaf-530 (T7-tagged Apaf-530) | activity of the Apaf-1 variant in promoting activation of procaspase-9 (procaspase-9) | co-immunoprecipitation with Bcl-xL (T7-tagged Bcl-xL)
Bcl-xL: Bcl-xL expressed from a transfected construct as apoptosis inhibitor comparator [reference compound] | inhibition |  |  | 
Apaf-97: truncated Apaf-1, residues 1-97, entire CED-4 homology region deleted (protein, left off: small tags and cut ends, truncated Apaf-1, residues 1-97, entire CED-4 homology region deleted) MDAKARNCLLQHREALEKDIKTSYIMDHMISDGFLTISEEEKVRNEPTQQQRAAMLIKMILKKDNDSYVSFYNALLHEGYKDLAALLHDGIPVVSSS |  | not | inactivated | not
Apaf-530ΔCARD: truncated Apaf-1, residues 98-530, CARD domain deleted (protein, left off: small tags and cut ends, truncated Apaf-1, residues 98-530, CARD domain deleted) SVRTVLCEGGVPQRPVVFVTRKKLVNAIQQKLSKLKGEPGWVTIHGMAGCGKSVLAAEAVRDHSLLEGCFPGGVHWVSVGKQDKSGLLMKLQNLCTRLDQDESFSQRLPLNIEEAKDRLRILMLRKHPRSLLILDDVWDSWVLKAFDSQCQILLTTRDKSVTDSVMGPKYVVPVESSLGKEKGLEILSLFVNMKKADLPEQAHSIIKECKGSPLVVSLIGALLRDFPNRWEYYLKQLQNKQFKRIRKSSSYDYEALDEAMSISVEMLREDIKDYYTDLSILQKDVKVPTKVLCILWDMETEEVEDILQEFVNKSLLFCDRNGKSFRYYLHDLQVDFLTEKNCSQLQDLHKKIITQFQRYHQPHTLSPDQEDCMYWYNFLAYHMASAKMHKELCALMFSLDWIKAKTELVGPAHLIHEFVEYRHILDEKDCAVS |  | co-immunoprecipitated | inactivated | capable of immunoprecipitating Bcl-xL
